Assay results: PMC9482650, “Quantitative fragmentomics allow affinity mapping of interactomes” (Nature Communications, 2022)
Each block holds one binder with its values, some of them ahead of it.

Experiments:
Assay in all cases: holdup assay
Design in all cases: key: below the threshold = too weak to quantify, mostly under pKd 3.1 to 4
[1] = target: PDLIM1, O00151
[2] = target: NHERF4_4, Q86UT5
[3] = target: GRID2IP_1, A4D2P6
[4] = target: Inadl_9, Q8NI35
[5] = target: IL16_1, Q14005
[6] = target: CASK, O14936
CASK, O14936, sequence (O14936 487-570): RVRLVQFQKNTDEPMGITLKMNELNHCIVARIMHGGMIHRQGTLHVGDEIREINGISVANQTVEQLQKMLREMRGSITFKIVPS

[7] = target: FRMPD2_2, Q68DX3
FRMPD2_2, Q68DX3, sequence (Q68DX3 944-1038): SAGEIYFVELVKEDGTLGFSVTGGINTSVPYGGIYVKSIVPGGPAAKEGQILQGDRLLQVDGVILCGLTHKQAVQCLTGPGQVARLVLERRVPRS

[8] = target: MAGI1_1, Q96QZ7
MAGI1_1, Q96QZ7, sequence (Q96QZ7 1-106): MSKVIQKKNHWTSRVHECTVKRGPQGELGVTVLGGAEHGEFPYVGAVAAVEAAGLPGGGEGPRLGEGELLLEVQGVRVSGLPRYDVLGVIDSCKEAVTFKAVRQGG

[9] = target: MAGI2_2, Q86UL8
MAGI2_2, Q86UL8, sequence (Q86UL8 410-522): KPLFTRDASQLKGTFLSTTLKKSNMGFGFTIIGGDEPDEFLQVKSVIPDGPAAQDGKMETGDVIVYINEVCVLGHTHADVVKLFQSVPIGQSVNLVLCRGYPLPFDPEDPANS

[10] = target: LIMK2, P53671
LIMK2, P53671, sequence (P53671 143-248): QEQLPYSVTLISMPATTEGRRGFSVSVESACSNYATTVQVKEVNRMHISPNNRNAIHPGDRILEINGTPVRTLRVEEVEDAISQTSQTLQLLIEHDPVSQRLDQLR

[11] = target: T1, RADIL, Q96JH8
T1 sequence (Q96JH8 971-1071, limits assumed, looked up): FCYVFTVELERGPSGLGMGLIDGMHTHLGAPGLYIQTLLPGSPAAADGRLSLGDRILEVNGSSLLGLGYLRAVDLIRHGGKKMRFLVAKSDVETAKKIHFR

[12] = target: T2, CARD11, Q9BXL7
T2 sequence (Q9BXL7 662-765, limits assumed, looked up): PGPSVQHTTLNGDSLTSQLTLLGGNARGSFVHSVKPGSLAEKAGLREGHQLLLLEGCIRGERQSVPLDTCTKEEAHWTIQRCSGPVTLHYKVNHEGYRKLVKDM

[13] = target: LNX1_2, Q8TBB1
LNX1_2, Q8TBB1, sequence (Q8TBB1 371-470): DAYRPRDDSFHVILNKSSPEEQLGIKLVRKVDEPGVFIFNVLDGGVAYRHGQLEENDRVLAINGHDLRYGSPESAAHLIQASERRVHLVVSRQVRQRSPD

[14] = target: T3, DFNB31_1, Q9P202
T3 sequence (Q9P202 135-233, limits assumed, looked up): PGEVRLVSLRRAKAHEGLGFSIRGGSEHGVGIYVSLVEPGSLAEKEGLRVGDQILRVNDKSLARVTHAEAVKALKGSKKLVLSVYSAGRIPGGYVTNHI

[15] = target: T4, APBA2_2, Q99767
T4 sequence (Q99767 654-744, limits assumed, looked up): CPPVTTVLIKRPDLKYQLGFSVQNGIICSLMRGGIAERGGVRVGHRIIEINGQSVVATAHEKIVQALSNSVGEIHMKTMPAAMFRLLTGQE

[16] = target: T5, GRIP1_3, Q9Y3R0
T5 sequence (Q9Y3R0 247-346, limits assumed, looked up): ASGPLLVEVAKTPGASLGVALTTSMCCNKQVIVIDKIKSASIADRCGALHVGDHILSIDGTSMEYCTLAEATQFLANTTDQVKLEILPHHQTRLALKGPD

[17] = target: T6, LNX2_3, Q8N448
T6 sequence (Q8N448 463-564, limits assumed, looked up): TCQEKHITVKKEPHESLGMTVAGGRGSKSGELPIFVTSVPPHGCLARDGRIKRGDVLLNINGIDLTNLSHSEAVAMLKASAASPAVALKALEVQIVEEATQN

[18] = target: T7, SIPA1L2, Q9P2F8
T7 sequence (Q9P2F8 945-1036, limits assumed, looked up): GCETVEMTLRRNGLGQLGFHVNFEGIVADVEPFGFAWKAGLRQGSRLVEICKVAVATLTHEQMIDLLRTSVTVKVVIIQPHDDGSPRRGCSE

[19] = target: T8, GRIP1_2, Q9Y3R0
T8 sequence (Q9Y3R0 145-248, limits assumed, looked up): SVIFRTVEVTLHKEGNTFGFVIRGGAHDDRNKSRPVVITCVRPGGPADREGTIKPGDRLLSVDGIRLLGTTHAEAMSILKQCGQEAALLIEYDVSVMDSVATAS

[20] = target: GRIP2_4, Q9C0E4
GRIP2_4, Q9C0E4, sequence (Q9C0E4 446-548): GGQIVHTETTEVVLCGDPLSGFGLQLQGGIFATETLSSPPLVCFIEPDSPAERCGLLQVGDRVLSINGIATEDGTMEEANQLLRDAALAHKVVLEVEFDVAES

[21] = target: T9, NHERF3_3, Q5T2W1
T9 sequence (Q5T2W1 238-333, limits assumed, looked up): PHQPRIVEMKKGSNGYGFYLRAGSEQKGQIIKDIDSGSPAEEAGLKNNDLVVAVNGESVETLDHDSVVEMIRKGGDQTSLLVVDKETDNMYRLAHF

[22] = target: T10, GRIP1_7, Q9Y3R0
T10 sequence (Q9Y3R0 999-1096, limits assumed, looked up): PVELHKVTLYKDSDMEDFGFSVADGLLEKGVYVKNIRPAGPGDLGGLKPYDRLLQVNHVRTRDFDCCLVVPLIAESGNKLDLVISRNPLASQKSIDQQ

[23] = target: GRID2IP_2, A4D2P6
GRID2IP_2, A4D2P6, sequence (A4D2P6 272-370): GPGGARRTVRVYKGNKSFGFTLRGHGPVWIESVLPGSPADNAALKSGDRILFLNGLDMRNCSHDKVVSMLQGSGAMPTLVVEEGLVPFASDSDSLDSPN

[24] = target: MAGI2_5, Q86UL8
MAGI2_5, Q86UL8, sequence (Q86UL8 915-1017): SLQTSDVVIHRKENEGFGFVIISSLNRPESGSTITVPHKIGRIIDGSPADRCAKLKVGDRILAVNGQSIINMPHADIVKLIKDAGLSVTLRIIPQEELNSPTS

[25] = target: Inadl_6, Q8NI35
Inadl_6, Q8NI35, sequence (Q8NI35 1058-1167): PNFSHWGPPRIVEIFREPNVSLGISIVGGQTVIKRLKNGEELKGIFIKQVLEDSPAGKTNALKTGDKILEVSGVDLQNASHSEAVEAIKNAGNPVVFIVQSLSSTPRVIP

[26] = target: T11, MPDZ_12, O75970
T11 sequence (O75970 1857-1958, limits assumed, looked up): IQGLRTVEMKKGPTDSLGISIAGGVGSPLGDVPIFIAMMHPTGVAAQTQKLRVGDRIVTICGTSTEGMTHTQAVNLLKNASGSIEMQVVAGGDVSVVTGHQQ

[27] = target: ARHGEF12, Q9NZN5-2
ARHGEF12, Q9NZN5-2, sequence (Q9NZN5 other isoform, or with tags, fused parts or gaps): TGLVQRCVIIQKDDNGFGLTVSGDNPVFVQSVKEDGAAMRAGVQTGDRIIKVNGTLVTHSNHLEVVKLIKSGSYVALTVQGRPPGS

[28] = plain residues with an end cap or a label only (N-terminal biotin on a linker: ttds)
[29] = plain residues with an end cap or a label only (N-terminal biotin on a linker: ahx)

IL16_1, Q14005, sequence (Q14005 210-306): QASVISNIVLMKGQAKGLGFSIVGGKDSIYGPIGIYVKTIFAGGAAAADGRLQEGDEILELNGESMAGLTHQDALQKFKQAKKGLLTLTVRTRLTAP
PDLIM1, O00151, sequence (O00151 1-87): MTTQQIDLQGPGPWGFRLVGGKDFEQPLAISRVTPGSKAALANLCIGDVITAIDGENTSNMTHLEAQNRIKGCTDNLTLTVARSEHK
GRID2IP_1, A4D2P6, sequence (A4D2P6 1-87): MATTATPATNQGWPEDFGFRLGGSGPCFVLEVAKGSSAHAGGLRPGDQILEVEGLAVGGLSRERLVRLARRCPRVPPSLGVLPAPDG
NHERF4_4, Q86UT5, sequence (Q86UT5 464-550): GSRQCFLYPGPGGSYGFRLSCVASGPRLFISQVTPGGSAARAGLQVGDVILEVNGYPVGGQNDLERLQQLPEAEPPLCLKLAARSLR
Inadl_9, Q8NI35, sequence (Q8NI35 1530-1615): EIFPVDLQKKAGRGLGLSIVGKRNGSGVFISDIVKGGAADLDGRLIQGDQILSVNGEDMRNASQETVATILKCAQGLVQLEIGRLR

pKd [1, 28]: below the threshold
pKd [2, 28]: below the threshold
pKd [3, 28]: below the threshold
pKd [4, 28]: below the threshold
pKd [5, 28]: below the threshold
pKd [6, 28]: below the threshold
pKd [7, 28]: below the threshold
pKd [8, 28]: below the threshold
pKd [9, 28]: below the threshold
pKd [10, 28]: below the threshold
pKd [11, 28]: below the threshold
pKd [12, 28]: below the threshold
pKd [13, 28]: below the threshold
pKd [14, 28]: 3.79
pKd [15, 28]: below the threshold
pKd [16, 28]: below the threshold
pKd [17, 28]: below the threshold
pKd [18, 28]: below the threshold
pKd [19, 28]: below the threshold
pKd [20, 28]: below the threshold
pKd [21, 28]: 3.79
pKd [22, 28]: 3.74
pKd [23, 28]: below the threshold
pKd [24, 28]: below the threshold
pKd [25, 28]: below the threshold
pKd [26, 28]: below the threshold
pKd [27, 28]: 3.52
Binder: TEEEVQDTRL [CFTR, P13569]

pKd [1, 29]: below the threshold
pKd [2, 29]: below the threshold
pKd [3, 29]: below the threshold
pKd [4, 29]: 3.97
pKd [5, 29]: below the threshold
pKd [6, 29]: below the threshold
pKd [7, 29]: below the threshold
pKd [8, 29]: below the threshold
pKd [9, 29]: 3.67
pKd [10, 29]: below the threshold
pKd [11, 29]: 4.2
pKd [12, 29]: below the threshold
pKd [13, 29]: 3.58
pKd [14, 29]: below the threshold
pKd [15, 29]: below the threshold
pKd [16, 29]: below the threshold
pKd [17, 29]: below the threshold
pKd [18, 29]: below the threshold
pKd [19, 29]: below the threshold
pKd [20, 29]: below the threshold
pKd [21, 29]: below the threshold
pKd [22, 29]: 4.09
pKd [23, 29]: below the threshold
pKd [24, 29]: 3.57
pKd [25, 29]: below the threshold
pKd [26, 29]: below the threshold
pKd [27, 29]: below the threshold
Binder: KKNKDKEYYV [NRXN1, Q9ULB1]

pKd [1, 28]: below the threshold
pKd [2, 28]: below the threshold
pKd [3, 28]: below the threshold
pKd [4, 28]: below the threshold
pKd [5, 28]: below the threshold
pKd [6, 28]: below the threshold
pKd [7, 28]: below the threshold
pKd [8, 28]: below the threshold
pKd [9, 28]: below the threshold
pKd [10, 28]: 3.7
pKd [11, 28]: 3.63
pKd [12, 28]: below the threshold
pKd [13, 28]: below the threshold
pKd [14, 28]: below the threshold
pKd [15, 28]: below the threshold
pKd [16, 28]: below the threshold
pKd [17, 28]: below the threshold
pKd [18, 28]: below the threshold
pKd [19, 28]: 3.61
pKd [20, 28]: 3.55
pKd [21, 28]: 3.54
pKd [22, 28]: below the threshold
pKd [23, 28]: below the threshold
pKd [24, 28]: 3.95
pKd [25, 28]: below the threshold
pKd [26, 28]: below the threshold
pKd [27, 28]: below the threshold
Binder: CNTVTVETVV [MAS1, P04201]
